Read-outs that look alike come from different tables or passages of the source.
Tests used:
Assay in all cases: SPR
[1] = molecular target: Ab 1-42 (UniProt P05067)
[2] = molecular target: Ab 1-42 (UniProt P05067); remark: listed apart in the source
[3] = molecular target: PFs (AB 1-42 proto) (UniProt P05067)
[4] = molecular target: monomer (UniProt P05067)
monomer, sequence (P05067 672-713): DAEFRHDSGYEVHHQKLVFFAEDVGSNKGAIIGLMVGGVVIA

Ab 1-42, sequence (P05067 672-713): as above
PFs (AB 1-42 proto), sequence (P05067 672-713): as above

Substance	koff [1]	koff [2]	koff [3]	koff [4]
BAPI	0.000505 s⁻¹	0.000426 s⁻¹		
Aducanumab			0.000144 s⁻¹	0.718 s⁻¹
